± gives the standard deviation of the averaged measurements.
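Note: PSI is a weighted mean of sequencing reads over stability bins, variants kept only with over 10 reads, mCherry proximal and sfGFP distal, peptide attached via GGGS linker.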

The subject of this data set is Saccharomyces cerevisiae. In words: protein stability index of tFT-peptide fusion (C-terminal peptide) (PSI (0-1 scale)); higher = more stable (slower turnover). Conditions: genetic background: wild type; temperature: 30 C.
For STPSPSPTGLSR, the protein stability index is 0.597 ± 0.065.

For STPVKLPTSSLP, the protein stability index came out at 0.663 ± 0.051.

STQELHYCFVCL: the protein stability index is 0.59 ± 0.022.

STRPPVRYHGAS showed a protein stability index of 0.728 ± 0.066.

As for STRRTSKCHQGI, the protein stability index worked out at 0.711 ± 0.019.

With STSAPPRVPTPR, the protein stability index was 0.704 ± 0.078.

For the sequence STSSNGVGLPRL, the protein stability index was 0.901 ± 0.11.

The sequence STVHLPAPAWGS yielded a protein stability index of 0.707 ± 0.033.

SVAGGGSACRGC had a protein stability index of 0.646 ± 0.039.

Take SVAWPRLLSISP: the protein stability index worked out at 0.612 ± 0.0089.

Consider SVCFPPCSSLPP, for which the protein stability index turned out to be 0.71 ± 0.19.

The sequence SVFGCLPFDLMV showed a protein stability index of 0.735 ± 0.0088.

With SVFSPSTALLYP, the protein stability index worked out at 0.697 ± 0.02.

In the case of SVGGLAALLCGL, the protein stability index amounted to 0.682 ± 0.037.

For SVGGSLGAGGGG, the protein stability index was found to be 0.682 ± 0.064.

SVGKRRGVGVWN had a protein stability index of 0.7007 ± 0.0031.

The sequence SVGLPPPPPFPP showed a protein stability index of 0.629 ± 0.017.

Turning to SVGLQLAFSAAV, the protein stability index came out at 0.728 ± 0.061.

In turn, SVLALKGFCWLG displayed a protein stability index of 0.562 ± 0.042.

The sequence SVPPCSLPPLPP gave a protein stability index of 0.6407 ± 0.0048.

For the sequence SVPPTCLHDAHF, the protein stability index was determined as 0.713 ± 0.053.

In the case of SVPSAWCWVSSS, the protein stability index was found to be 0.6 ± 0.038.

As for SVPTPSSNPRVK, the protein stability index was 0.698 ± 0.05.

Sequence SVQIKKIRRKNN came in with a protein stability index of 0.6227 ± 0.0037.

Sequence SVRDRCKENERF gave a protein stability index of 0.658 ± 0.043.

In turn, SVRGMFPSAGVS displayed a protein stability index of 0.6934 ± 0.00093.

SVSDPLPPRQTV had a protein stability index of 0.721 ± 0.057.

As to SVSEIGYEIRSL, the protein stability index came to 0.739 ± 0.068.

As to SVSLSLLFFLPF, the protein stability index was 0.675 ± 0.025.

SVTLVPPPLPFP gave a protein stability index of 0.677 ± 0.054.

Sequence SVVGNYHQTEPV gave a protein stability index of 0.702 ± 0.059.

Regarding SVYTTGHTHTGR, the protein stability index was 0.626 ± 0.17.

In turn, SWALELARPGEG showed a protein stability index of 0.718 ± 0.013.

SWFLLEVLSDFK displayed a protein stability index of 0.649 ± 0.014.

Sequence SWFVGFDGAVGG showed a protein stability index of 0.774 ± 0.088.

SWGGELGATSGG showed a protein stability index of 0.708 ± 0.024.

In the case of SWGGLGSFCRVI, the protein stability index was 0.684 ± 0.014.

SWGRYSYIEVMR: the protein stability index was found to be 0.7022 ± 0.0057.

Regarding SWKFAFWCFLGR, the protein stability index is 0.5675 ± 0.0056.

SWPIWGSCGWRR registered a protein stability index of 0.739 ± 0.11.

SWSLIFFGYFPF: the protein stability index was 0.591 ± 0.029.

In turn, SYFVSGADSLIL came in with a protein stability index of 0.635 ± 0.017.

On to SYGDPSTTRLSP, for which the protein stability index is 0.701 ± 0.063.

The sequence SYGPSGEFSFSF displayed a protein stability index of 0.702 ± 0.0075.

SYHRAAPFQSCD returned a protein stability index of 0.8 ± 0.12.

Turning to SYPLSRPCSPCD, the protein stability index came out at 0.677 ± 0.068.

Sequence SYRGIGVGLCAG had a protein stability index of 0.622 ± 0.016.

Sequence SYTLSGYGSRDN gave a protein stability index of 0.698 ± 0.018.

In the case of TAAEECIGRAIG, the protein stability index amounted to 0.671 ± 0.04.

TAAHRASGEIAC showed a protein stability index of 0.684 ± 0.062.

TAGVQSGCTRII: the protein stability index amounted to 0.618 ± 0.052.

With TAHHTRPQYLPL, the protein stability index was found to be 0.622 ± 0.022.

TAKVYEKEGGEE gave a protein stability index of 0.671 ± 0.019.

In the case of TAPPSISYVQAF, the protein stability index was determined as 0.639 ± 0.021.

TARGAAARSSQL returned a protein stability index of 0.747 ± 0.071.

Sequence TASRSSRADERA had a protein stability index of 0.591 ± 0.033.

Consider TCFYYVGGEKCM, for which the protein stability index was determined as 0.665 ± 0.0077.

Regarding TCLGYKLHPARG, the protein stability index was found to be 0.718 ± 0.031.

In turn, TCVASLSVLCLL returned a protein stability index of 0.574 ± 0.048.

TDHTNCARDLGA showed a protein stability index of 0.664 ± 0.054.

TDSRPKVGKRGN returned a protein stability index of 0.6583 ± 0.0025.

With TDWLMQRILRPF, the protein stability index was 0.718 ± 0.028.

With TEGGKIEGGGRK, the protein stability index came out at 0.682 ± 0.087.

Regarding TEINEAQNIPEK, the protein stability index came to 0.6688 ± 0.0027.

As for TEKRMIINIKIK, the protein stability index was 0.735 ± 0.03.

TERPPRRPKSQG registered a protein stability index of 0.715 ± 0.038.

Take TFLGEAGSVGVT: the protein stability index was 0.646 ± 0.03.

For the sequence TFSFSRPPLPPA, the protein stability index turned out to be 0.6853 ± 0.0066.

TFSPRLRPPPPP: the protein stability index was determined as 0.7078 ± 0.0041.

As for TFTESRLRMRLG, the protein stability index was determined as 0.623 ± 0.086.

As for TFVSPPPHPLRP, the protein stability index was 0.636 ± 0.055.

As for TGIGCRFIWCSK, the protein stability index is 0.65 ± 0.037.

Sequence TGLRLFGVLSLI gave a protein stability index of 0.607 ± 0.016.

Take TGPGCWVCCVGE: the protein stability index is 0.648 ± 0.048.

As to TGSGQVSREERS, the protein stability index was determined as 0.671 ± 0.036.

Sequence TGVRSAEAKRKQ yielded a protein stability index of 0.579 ± 0.05.

THPRPTLTRCST had a protein stability index of 0.734 ± 0.081.

On to THPTCPLHLLPT, for which the protein stability index came out at 0.699 ± 0.039.

Take THSQPPQYSRVP: the protein stability index was 0.638 ± 0.071.

With THTPPPHRPSNR, the protein stability index is 0.682 ± 0.22.

These data come from the supplement of paper PMC10724198.
